Measurements from the supplement of paper PMC12764529.
± gives the half width of the 95% confidence interval.

Test: folding stability dG unfold from trypsin proteolysis; higher = more stable
Method in brief: (§1)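 Only designs with AlphaFold2 dimer inter-PAE above 15 were retained; each was a mini-protein under 80 residues with no cysteine, in a PA-tagged cDNA display construct. After digestion with trypsin and chymotrypsin and sequencing, K50 was inferred by Bayesian fitting of counts, and unfolding free energy was derived per protease or combined against a sequence-predicted unfolded-state K50 and a shared folded-state K50.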

Sequence	folding stability dG unfold
SAGGSALPALAERFPDAEIEPVGDDGTSVTYRFRFPGGDYLLVTVPFLPGTTEAVVDIEWVPRDALSAGGSA [r15_547_TrMRF]	1.68 ± 0.051 kcal/mol
SEFELKIEEEEDPATGVLRVTVTFNTSLEDAKEKLKELLKESGLNAVIKSVEEKKVGPEVTITFEIEIPPSA [r9_164_JUSTAS]	2.71 ± 0.065 kcal/mol
SAGYKATIIPPDGSEVTIDVKAEDLGPLVEELEKAGLKVESLEVSPDGTAVIPVTSPDGKPYLIVIDLKSAG [r5_645_TrMRF]	0.418 ± 0.032 kcal/mol
SAGGSARRPFNVEAWYPPGRSADNVADELASHFFGIKIDDVEVEPNPDNGYYKIEATIRIPPDWLKSAGGSA [r15_930_TrROS]	0.0136 ± 0.36 kcal/mol
SAGGSAGGSAGGGVTLPTGDIVVPVEYTTTVPVLTYNPTLGVSYFFTLTVTTSSTVYVGLSAGGSAGGSAGG [r7_374_JUSTAS]	2.71 ± 0.057 kcal/mol
SAGGSAGGSAKIIVNEDGYLIKITNKNGKEITIEMSEDELKELLKKLGIKKAEIVPLPKEKSAGGSAGGSAG [r3_141_TrROS_Hall]	0.382 ± 0.075 kcal/mol
SAGGSAGGMIEVSYDPVKNRYIATFKFPEGEVTITLPADLSPEEKAAAIKAAAEAAAKEKGIKLSAGGSAGG [r6_679_JUSTAS]	1.68 ± 0.025 kcal/mol
SAGGEIEILLEDGTLLRIRVELDEDGNLRVTVELFRLEPPPAPEVVVERREEREERRVLFADSAEDLSAGGS [r16_802_TrROS_Hall]	0.941 ± 0.06 kcal/mol
SAGMPIRVRLLVERPALDPETGEPVVERREVVLTLHPEEIASGIPVEELAKELEKAFPGAKVTVLEVSSAGG [r19_110_TrMRF]	3.88 ± 0.11 kcal/mol
SAGGSAGGGAVVLEEAFDPVRPERLVLVEVVNEKGEPFRFPVPLEDLEAVFEKLPPGFPVLVLPSAGGSAGG [r6_111_TrMRF]	0.491 ± 0.021 kcal/mol
SAGGMTFSGVTREQALAIAKALEEEGYVLERVEVVEFPEDGTVRALVVVRDPETDEPLAEIELDIKPSAGGS [r16_750_TrMRF]	1.53 ± 0.017 kcal/mol
SAGGSMAPDVKVEVEVFPDGLVLFRLTLPDGRPFLALAEVREDGRVKVVVFDLYPGEKVEFEIPIKSAGGSA [r2_99_TrMRF]	2.52 ± 0.12 kcal/mol
SAGGSADVKITEVHNPHRNPNGRPFFMVRIKWPDNGTHTIMMNPNDLDDLLAQLPPNWKIDEIHPISAGGSA [r15_339_TrROS]	1.39 ± 0.025 kcal/mol
SAGGPSHPLGPVALTLDPAASTLTVTLGDEVLTLPVPPGVTATATSYPDSVTVTLTFPDGTVVTVTLPLSAG [r5_21_JUSTAS]	2.18 ± 0.063 kcal/mol
SAGGKKKKVKVKVVKVEKLENGTYKVVLEVEVDGKKITLVKEFKTKEDLEKKPKEIEITVEELKKLLKSAGG [r13_540_TrROS_Hall]	2.46 ± 0.13 kcal/mol
SAGGSAGGSAGGKKVKVIKVSVTYDPKTKKLTIKVEKTGKTYTIPLKEIELVNGYLKIKSAGGSAGGSAGGS [r10_942_TrROS_Hall]	1.78 ± 0.11 kcal/mol
SAGGSAGGSAGGKKTYVKKIVTEKKKVKLFFYDKKTGELLEEKEVEVIKTKIYVTKPDEFSAGGSAGGSAGG [r7_573_TrMRF]	0.479 ± 0.13 kcal/mol
SAGGSAPPPNTIPIRVKIEDKNGKWETITFPVKSGDDAKDFLNDNFPNVKVEYDPGAGWVTIEVPKSAGGSA [r15_313_TrROS]	-0.868 ± 0.29 kcal/mol
SAGGSAGGSKIKIYPYSTKGKNEVYYLIETENNYLYIKVTIYYDPKTGKPVKIEIKEIFTLPKSAGGSAGGS [r12_70_TrMRF]	2.44 ± 0.09 kcal/mol
SAGGSAGGSLHPSQPLLVTVEVEVDPETGTVRLRVSVWVPGPRERLLERELEVPLHSLPEGALSAGGSAGGS [r12_145_TrMRF]	1.69 ± 0.039 kcal/mol
SETETITVEVTMPAEELANMSAEELAARLREAFPDLKITSISITVEEVEDPETGERLVRVTVTITVERVPSA [r9_1189_TrROS_Hall]	4.28 ± 0.11 kcal/mol

Test: folding stability dG unfold (combined trypsin and chymotrypsin); higher = more stable
Method in brief: as §1

Sequence	folding stability dG unfold
SAGGSAAITFPSDKTATVLSEEYDPVKKTTTVKMKVGNKEVTATLSPDGTVTIKLPDGKEETYPVGSAGGSA [r15_111_JUSTAS]	1.35 ± 0.099 kcal/mol
SAMKIVEIVEYDKEKKKIRIKIEVNGKLLEIEIEAESEEEVEEALKKLKEELEFELPDGKKVRITEIEISAG [r14_422_TrROS_Hall]	1.63 ± 0.28 kcal/mol
SAGGSAGGSAGGPRMTVVDLDPEKGDHLYLVEIPDTNEVVLVSSSELLRLAEAGPVELKGSAGGSAGGSAGG [r7_452_TrMRF]	0.129 ± 0.14 kcal/mol
SAGKTVEIKVTLKITRYEKLPDGSVKKEVKTLTITVTMSEEELNKEEIKNALKELLEKLPPDVKKIEITSAG [r5_849_TrROS_Hall]	4.34 ± 0.22 kcal/mol
SAGGSAGGEDRLLLRVEVIVGGVPFEPVLEVDHPELRELLEEGRVLVVELPGGAVGRLYAEPLASAGGSAGG [r6_478_TrMRF]	0.811 ± 0.1 kcal/mol
SMKKNTLTLTVKVKVTVTVVKKKKDGKEEVVKKETVEVTVKVTFLSKEELEKLKKELEKLKKELEELKKKSA [r9_1192_TrROS_Hall]	3.39 ± 0.75 kcal/mol
SAGGNSMTILFIFPENGWIIRITIKFPDGNGKIDDIDIEREPVPNGQVKYTIRMPDGMEISVEIIPLDSAGG [r13_515_TrROS]	5.52 ± 0.33 kcal/mol
SAGDAIADLLKEAGFEIDSVDSIEPTDGSYVIGFKFEFPNGWYMEITIWIDPNNPDKIEIDIKMQPPDESAG [r5_683_TrROS]	4.06 ± 0.45 kcal/mol
SAGGSAMIEEKLIEIPPIPVPYPDGSVQKVPVLVEETVELKPFIDPNTDKTSTAKTVTKRKVIFPSSAGGSA [r15_884_JUSTAS]	0.379 ± 0.15 kcal/mol
SAYRIEIEIPSPKLAKKLEALLPPNYRIDNVRRNKNDNQVKITVEYDPGMPPSRMRRIHKEIKELIKELSAG [r14_306_TrROS]	1.86 ± 0.18 kcal/mol
SAGGSAGGSAGGSGMTSTTYRLPEGNVVLVETFDPATGTVTLEIRGPPSVERTLTLPVASAGGSAGGSAGGS [r4_443_JUSTAS]	3.21 ± 0.24 kcal/mol
SAGGSAGGSAGGEIKSGDKVVLVFNEDGKGYKAYYEEELEKLLKEDPKIKKVLVVDVPAESAGGSAGGSAGG [r7_118_TrMRF]	-0.429 ± 0.22 kcal/mol
SAGGSAGGSAGKVVLAKAKVTPPDGSEYEFDLAIEVPDDVVLVVGLHFDYPDQVDFVFEGSAGGSAGGSAGG [r11_781_TrMRF]	1.2 ± 0.072 kcal/mol
SAGGSAGGSAGPKIKIKKFPDFLIAEIEFPDGKKATAIFDPKTGKIIVFVGDKPIEIDIGSAGGSAGGSAGG [r11_846_TrMRF]	3.1 ± 0.07 kcal/mol
SAGGSAGGSAGGSNDNVVPITILFVDPGKDDRLYLREIRLRIYENGDIEAEVKVYELPLSAGGSAGGSAGGS [r10_598_TrMRF]	3.68 ± 0.1 kcal/mol
SAGGSAGGKAKIKKIEVELNEDGTLKVTAYDEETNEKITLEVKLPKPKPVYFDEEKLKEELEKKSAGGSAGG [r6_627_TrROS_Hall]	0.629 ± 0.19 kcal/mol
SAGGSIEEAKKAAEKLAKEIAEKKGWTVKSVEVEKLPDGTVRATITIKYPDGSEETIEVTIPPNTPLSAGGS [r8_175_JUSTAS]	1.91 ± 0.14 kcal/mol
SAGGSAGGSAGGENPEYKPKLLVLVKLEVNGEYYYREFETLEELENYNDPNLKVVAVADLSAGGSAGGSAGG [r7_793_TrMRF]	1.02 ± 0.083 kcal/mol
SAGGSLPELLKLAKELAKKLGAKDLTAKESGEITIKSPENITITVSTEDGEPVVTINNTSTSSTIPLSAGGS [r16_296_JUSTAS]	-0.18 ± 0.26 kcal/mol
SAGGSAGGSAGMKLPEGWEIVAVYRDKETNKLYLIVRDTKTKKLLIVDLDTKKIISAEELSAGGSAGGSAGG [r11_268_TrROS_Hall]	4.06 ± 0.1 kcal/mol
SAGGSAGGSAGGSSYQLKLEAEFLVGDSSGKLYKVKLTITVNEDGSISIDLEVLSVFDVSAGGSAGGSAGGS [r4_496_TrMRF]	5.41 ± 0.16 kcal/mol

Sequence	folding stability dG unfold
SAGGSALPALAERFPDAEIEPVGDDGTSVTYRFRFPGGDYLLVTVPFLPGTTEAVVDIEWVPRDALSAGGSA [r15_547_TrMRF]	2.35 ± 0.051 kcal/mol
SEFELKIEEEEDPATGVLRVTVTFNTSLEDAKEKLKELLKESGLNAVIKSVEEKKVGPEVTITFEIEIPPSA [r9_164_JUSTAS]	3.05 ± 0.057 kcal/mol
SAGYKATIIPPDGSEVTIDVKAEDLGPLVEELEKAGLKVESLEVSPDGTAVIPVTSPDGKPYLIVIDLKSAG [r5_645_TrMRF]	0.413 ± 0.094 kcal/mol
SAGGSARRPFNVEAWYPPGRSADNVADELASHFFGIKIDDVEVEPNPDNGYYKIEATIRIPPDWLKSAGGSA [r15_930_TrROS]	0.33 ± 0.18 kcal/mol
SAGGSAGGSAGGGVTLPTGDIVVPVEYTTTVPVLTYNPTLGVSYFFTLTVTTSSTVYVGLSAGGSAGGSAGG [r7_374_JUSTAS]	3.37 ± 0.082 kcal/mol
SAGGSAGGSAKIIVNEDGYLIKITNKNGKEITIEMSEDELKELLKKLGIKKAEIVPLPKEKSAGGSAGGSAG [r3_141_TrROS_Hall]	1.72 ± 0.2 kcal/mol
SAGGSAGGMIEVSYDPVKNRYIATFKFPEGEVTITLPADLSPEEKAAAIKAAAEAAAKEKGIKLSAGGSAGG [r6_679_JUSTAS]	1.88 ± 0.058 kcal/mol
SAGGEIEILLEDGTLLRIRVELDEDGNLRVTVELFRLEPPPAPEVVVERREEREERRVLFADSAEDLSAGGS [r16_802_TrROS_Hall]	1.75 ± 0.15 kcal/mol
SAGMPIRVRLLVERPALDPETGEPVVERREVVLTLHPEEIASGIPVEELAKELEKAFPGAKVTVLEVSSAGG [r19_110_TrMRF]	3.81 ± 0.047 kcal/mol
SAGGSAGGGAVVLEEAFDPVRPERLVLVEVVNEKGEPFRFPVPLEDLEAVFEKLPPGFPVLVLPSAGGSAGG [r6_111_TrMRF]	0.36 ± 0.048 kcal/mol
SAGGMTFSGVTREQALAIAKALEEEGYVLERVEVVEFPEDGTVRALVVVRDPETDEPLAEIELDIKPSAGGS [r16_750_TrMRF]	1.7 ± 0.055 kcal/mol
SAGGSMAPDVKVEVEVFPDGLVLFRLTLPDGRPFLALAEVREDGRVKVVVFDLYPGEKVEFEIPIKSAGGSA [r2_99_TrMRF]	3.28 ± 0.14 kcal/mol
SAGGSADVKITEVHNPHRNPNGRPFFMVRIKWPDNGTHTIMMNPNDLDDLLAQLPPNWKIDEIHPISAGGSA [r15_339_TrROS]	1.57 ± 0.049 kcal/mol
SAGGPSHPLGPVALTLDPAASTLTVTLGDEVLTLPVPPGVTATATSYPDSVTVTLTFPDGTVVTVTLPLSAG [r5_21_JUSTAS]	2.89 ± 0.056 kcal/mol
SAGGKKKKVKVKVVKVEKLENGTYKVVLEVEVDGKKITLVKEFKTKEDLEKKPKEIEITVEELKKLLKSAGG [r13_540_TrROS_Hall]	3.87 ± 0.37 kcal/mol
SAGGSAGGSAGGKKVKVIKVSVTYDPKTKKLTIKVEKTGKTYTIPLKEIELVNGYLKIKSAGGSAGGSAGGS [r10_942_TrROS_Hall]	2.21 ± 0.34 kcal/mol
SAGGSAGGSAGGKKTYVKKIVTEKKKVKLFFYDKKTGELLEEKEVEVIKTKIYVTKPDEFSAGGSAGGSAGG [r7_573_TrMRF]	0.868 ± 0.26 kcal/mol
SAGGSAPPPNTIPIRVKIEDKNGKWETITFPVKSGDDAKDFLNDNFPNVKVEYDPGAGWVTIEVPKSAGGSA [r15_313_TrROS]	-0.0942 ± 0.44 kcal/mol
SAGGSAGGSKIKIYPYSTKGKNEVYYLIETENNYLYIKVTIYYDPKTGKPVKIEIKEIFTLPKSAGGSAGGS [r12_70_TrMRF]	2.57 ± 0.26 kcal/mol
SAGGSAGGSLHPSQPLLVTVEVEVDPETGTVRLRVSVWVPGPRERLLERELEVPLHSLPEGALSAGGSAGGS [r12_145_TrMRF]	2.25 ± 0.091 kcal/mol
SETETITVEVTMPAEELANMSAEELAARLREAFPDLKITSISITVEEVEDPETGERLVRVTVTITVERVPSA [r9_1189_TrROS_Hall]	4.31 ± 0.15 kcal/mol
